{"source": "patent US20140322759", "assay_in_all_cases": "EMSA", "key": {"[1]": {"target": "T1, phi29 DNA polymerase E221K E221K (Bacillus phage phi29) (UniProt P03680)", "T1 sequence": "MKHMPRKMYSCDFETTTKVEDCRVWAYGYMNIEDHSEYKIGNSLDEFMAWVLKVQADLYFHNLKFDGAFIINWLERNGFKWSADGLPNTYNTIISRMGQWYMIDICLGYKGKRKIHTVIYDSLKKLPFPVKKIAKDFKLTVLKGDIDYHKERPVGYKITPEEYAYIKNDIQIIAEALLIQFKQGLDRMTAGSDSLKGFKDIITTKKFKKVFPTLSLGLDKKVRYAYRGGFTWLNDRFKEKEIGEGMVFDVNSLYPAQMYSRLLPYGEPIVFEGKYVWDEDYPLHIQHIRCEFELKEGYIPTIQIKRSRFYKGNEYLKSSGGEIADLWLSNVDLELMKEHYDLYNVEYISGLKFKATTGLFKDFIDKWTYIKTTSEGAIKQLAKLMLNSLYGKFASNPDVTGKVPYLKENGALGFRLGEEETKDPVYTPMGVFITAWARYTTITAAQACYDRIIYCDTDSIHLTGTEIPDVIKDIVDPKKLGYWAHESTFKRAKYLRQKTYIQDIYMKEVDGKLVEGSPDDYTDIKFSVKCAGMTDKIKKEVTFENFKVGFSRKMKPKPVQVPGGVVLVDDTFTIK", "conditions": "SD 18.4; unit not given (μM in assay); pH 7.9, 66 mM K-acetate, 30 C"}, "[2]": {"target": "T2, phi29 DNA polymerase K512E K512E (Bacillus phage phi29) (UniProt P03680)", "T2 sequence": "T1 sequence with K221E, K512E", "conditions": "SD 27.6; unit not given (μM in assay); pH 7.9, 66 mM K-acetate, 30 C"}, "[3]": {"target": "T3, phi29 DNA polymerase Mut_5 M8R,V51A,M97T,G197D,E221K,Q497P,K512E,F526L (Bacillus phage phi29) (UniProt P03680)", "T3 sequence": "T1 sequence with M8R, V51A, M97T, G197D, Q497P, K512E, F526L", "conditions": "SD 7.4; unit not given (μM in assay); pH 7.9, 66 mM K-acetate, 30 C"}, "[4]": {"target": "T4, phi29 DNA polymerase wild-type (Bacillus phage phi29) (UniProt P03680)", "T4 sequence": "T1 sequence with K221E", "conditions": "SD 5.7; unit not printed in table (enzyme titrated 0-600 μM, 2 μM DNA as printed); Tris-acetate pH 7.9, 66 mM K-acetate, no Mg listed, 30 C"}}, "note": "Positions count from the first letter of the chain named.", "data": [{"sequence": "GATCACAGTGAGTAC / TCTATTGTACTCACTGTGATC [15-mer/21-mer primer/template]", "values": [{"measurement": "Kd", "setting": "[1]", "result": 67, "unit": "µM"}, {"measurement": "Kd", "setting": "[2]", "result": 54, "unit": "µM"}, {"measurement": "Kd", "setting": "[3]", "result": 23, "unit": "µM"}, {"measurement": "Kd", "setting": "[4]", "result": 76, "unit": "µM"}]}]}
